Measurements as given in US20190023750A1 (SPOGEN BIOTECH, published 2019).

Target: FLS2 receptor (in corn tissue) (corn (taken from the assay tissue; …)
Test: cell-based or functional assay

Binder: QRLSSGKRINSASDDAAGLAIA [Bt.Flg22-Syn03, Mutant D1Q (SEQ ID NO: 573)]
- Avg. Activity (%), ROS activity in corn (5828 YX) at 5 nM polypeptide, relative to Bt.4Q7Flg22: 122%
